# Experimental data: the DeepSol protein solubility set
# Assay: soluble on expression in E. coli; label from the status in PepcDB or PDB records
row,Sequence,soluble on expression in E. coli
1,MAENAAPGLISELKLAVPWGHIAAKAWGSLQGPPVLCLHGWLDNASSFDRLIPLLPQDFYYVAMDFGGHGLSSHYSPGVPYYLQTFVSEIRRVVAALKWNRFSILGHSFGGVVGGMFFCTFPEMVDKLILLDTPLFLLESDEMENLLTYKRRAIEHVLQVEASQEPSHVFSLKQLLQRQRTALTSSAGSCVRIPSGSCRPMSC,soluble
2,MGSDKIHHHHHHLKILKFQIKDFRNLKKIEYQPSPGLNIFYGENAQGKTNILEALYYLATGNSFRSNKEKTLISYESSSLQVQARYNHQERIIDSSITYGLDGKVFRINKKRASYNHTDRLRIILFSPDDLYLVKGAPYKRRFFLDFLLGQISNEYLFKLDNYRKILKKRNLLLKKEETNSRSFAIINDIFMDLAAQLLISRLNLINVLDEAIQEIYPQINNDGGQLKIRYALSFPVDSGKINLDILKDSLKKQVESETEKEKKRKTTLLGPHLDDMHIYLNEQMARLFASQGQQRNIVICLKLAEIMTFRKIKGFFPIFLLDEVLAELDDSRSNKLLKYLAQSPFQSFLTSVKLEKFEVMDASIFLVKDGCLLGKE,not soluble
3,KSIELYENNIPNGKTDAILIKNQTLISALKNPKQTKSSQRSSQSTNTQNDAICYLAFNSKIRPDDKDIFLLDKFGEKFVTAIVNFEEKTEVKINTLQEKEAVVLPAPQKFKPTDPKSVALVQGPSLIGIHANANEDRSTIKFLNW,not soluble
4,MGSDKIHHHHHHSAHNKVSSQKLEAKNVNQVSNYSGDIDLLTVSQPTTPTTNNGQINQYFINRFDNAISLLNGKYVVNHNVLPQNTSGEEINILNESVKIANQQLIVGAQKIEKSDIDVKVVQKGNSIILAENPTTLKNSATSMATKHVGVTKVEFHWYGVRLFLSKNDVNKILKYGPTSVSIATIWMPTTWVVKLAASAAVACGWMSSVNGGIWIDWGLIPTKWGWQ,not soluble
5,MKFDRHRRLRSSATMRDMVRENHVRKEDLIYPIFVVEKDDVKKEIKSLPGVYQISLNLLESELKEAYDLGIRAIMFFGVPNSKDDIGTGAYIHDGVIQQATRIAKKMYDDLLIVADTCLCEYTDHGHCGVIDDHTHDVDNDKSLPLLVKTAISQVEAGADIIAPSNMMDGFVAEIRRGLDEAGYYNIPIMSYGVKYASSFFGPFRDAADSAPSFGDRKTYQMDPANRLEALRELESDLKEGCDMMIVKPALSYLDIVRDVKNHTNVPVVAYNVSGEYSMTKAAAQNGWIDEERVVMEQMVSMKRAGADMIITYFAKDICRYLDK,not soluble
6,MSQLLLNLEGKTKIKAIARKNDLCERKSSNLHHFCVEFHNNYEFLEIGLSEARSLASISDKNVLNSNRKAENYQKKWKNFEKESILKLNSIMEKISSHSQPSHHHTNASITLPYDATIQKIAEKEKNLSKLLKELSIVDSSLKEEKASFEKTQSALLKEKGKIEKDKLMLREEAQKQASMNAEVQKKELESQERLSVLNKQFMEENEKKVKLEQEELDSKNAYNDCLQLNIPNAESQMITDQLATLDEFYSDLNNNSSNEIMAEIPDFEEIIDLFNQFKSSMESQKDILNTLAGLEEQLGDHQLEIKSVRKDINKLKGLQGKQSFYKEELKLKKSALEEIQRKIDYDQDVLNSLKVVEKAAKPDDYLRPRNSRKESVFRKLPIPERSMQHDSDTLDTRKNSKTMLKNESTRHSNPGIRLLKVPNRDSDEESENSFDDGTTQDESGVNAFFGQLSDEKEESPTAVEFSMAAHLTEFSQRQAAAAAKMNMKTPEKKVVEIESDEDDDLDSSIIAPNRAKSKDDRKSDDSDDDLNDEEGDADQSIWGSDD,not soluble
7,TNSAVVDVSFGFPSLVGFTFMSEMVHQFKMTFPKARVSMYEAQLSAFLPAIRDGRLDFAIGTLSDEMKLQDLHVEPLFESEFVLVANRARIGNGTVRLASLQHEQWVLPETNMGYYSELLTTLQRSGIRRENIVNTDSVVTIYNLVLNAD,not soluble
8,MAGDPMTYRDFIGRLKENGKLVEIQQPVSPIFEASRIAKKTKGPVLFHNVSGSKVIMNLLGSRDELSSMLGVPKEEIIKKLSEVSPEGEVRLVPGSPTLEVIESEVDLTKLPILTHFEKDGAPYITAGIVVSEYEGVMNASIHRLMLVGKDKLAARLVPPRHTYLLHKKAAEKGETLPVAIVLGCDPTIIYATSTRVPAGKEFEYAAALRGTPVEVFECSNGIKVPHSEIILEGYIDTKERVDEGPFVDITGTYDMVRKEPVIHITRIIHRKDPIYHGILPAGPEHLLMMGVPYEPRIYRAVGEVTTVKNVVLTEGGCCYLHAVVQIEKQTEGDAKNAIMAAFAAHTSLKHVVVVDEDINIFDPNDVEFAIATRVKGDMDILTITNVRGSSLDPRGASDGTTTKVGIDATKVLIEKENFERAIIPEELEHHHHHH,not soluble
9,NTDKHIYLEEHISPESQPMLSTYFRSMGKPRSIKENVLTVPQDASPETLALYYFARIYLERYEGVPLPDDMPDLIEFGRKHNMPWVVAEAKLNKAIRMIELDDDWHAELLLHDVIGESRDIGYLALQGRAYRWMGNLEIARNQIHNGLKHYRTAYELLENTVFEIQVAMTLNNIGTVYLDSSDWNRASNYLKQALDVYESSEYEYDNS,not soluble
10,MASIADAIGKILTAHSPYPAVVVDRHWNMVDANDAVAVLTEGCAAELLEPPVNVLRLSLHPDGMAPRILDLAQWRGHLLHRLRHQIAVTGDDGLRDLLRELEGYPGGTVGSAELPGSLVVPLRIRHHETVLAFLSTTTMFGTPLDVTVAELAIESFFPADAVTAATLRSSVSSD,soluble
11,MGSDKIHHHHHHMSKYESEVVVDGFHYLEGPRWYKDALWFVDFYTKGVYRVNDESVAEKIVHVEQQPSGLGWLPDGRMLIVSMKDRKVLRLEDNGELVVHADIWDHCEGHANDMVVAPNGNAYVGNFGFDLMGGADHKQTGLVLVKPDGNSQIVAEGLAFPNGMVISADEKTLIVNELFGNKISQFDINADGTLGEKRDFANFGDLGDEPNLGARIENANILPDGLALDSEGAVWIADTLNQRAVRISEGGEILDIVNTAPDGIFAVALGGQNGKTLFMCAAPDWDEASRTAETKGRMLSTQVKVGHAGTP,not soluble
12,MSEPAVVSILDTDLYKLTMLQAVLEHYPDAQVSYKYTNRSPKMALNQEAYNWLREQIRGLRNLHLLPEEEQWLRKNCPYLKESFYEFMHEFEFDPENSISLNYDSETKDLSIFIHGLWKNTIFYEIPLLALVSESYFKFVDKDWSPEGQFEKAYEKGKRLIRAGCAFTDFGTRRRRDPHTQEIVLQGLMKAQEDFKGPGSFLGTSNVYFAAKYNLNVSGTVAHEWYMGIAAITQNYKQANRIASLKWVQTFGTSLLIALTDTFSTDVFLKSFTANSADDLANVFHGVRQDSGCAEEYIEKVVKHYKSIGVDPSTKVIVHSDALNVDRCIELYKYCEKCGIKSAFGIGTNLTSDFQKVSNPSEVSKPMNIVIKLFSAEGTKAVKISDDIMKNTGDRDAVIQAKHQLCLPIA,soluble
13,MLKKILLSLVVFYQRFISPLTPPTCRFYPTCSQYTREAIEYHGALKGLYLGVRRILKCHPLHKGGFDPVPLKKDKNSKTTHHHLEHHHHHH,not soluble
14,MMKKMMVLYNETSGSSESKEIAERFKKAAEARGEAVILQPSNPDIDPEEMRKNAKENQVGVLVVIGGDGTIHHAVQNFKDTIRDYQIGIIPGGTVNNFARVLSIPLKEEDAFETILAGQTTPVDFGMVNQDVMISTLTIGLLADTAANVTQQEKQKYGPLAFTKQFFRLLMKKKKYKLKIDGDERRWHGKAQLLTMTMTNSAGGFTNFDANATPDDGEVHIIILPKLVFYKFVYYLPKIIRGQLNEIPGVVYFSGSQFKISGEKDKKVQTRTDGDPTDDLPIKVTVEAGGLNVFVPETSTSTKE,not soluble
15,MSLDVFVLDTSVFTNPEIYRTFEEDQRGAMETFIHLALNSRAEFYMPTSVYTEMRKIMDVGELWAEFEMVVKIRSPRRFQLTVPADFLYEFIEELRYRINKGLRIAEEHTREASGCEDVGKLIARLREKYREALRQGILDSKEDVDVLLLAYELDGVLVSADEGLRTWADKIGIKLIDPKNFKNILESLVRHRFEGHHHHHH,soluble
16,MSKFLDRFRYFKQKGETFADGHGQLLNTNRDWEDGYRQRWQHDKIVRSTHGVNCTGSCSWKIYVKNGLVTWETQQTDYPRTRPDLPNHEPRGCPRGASYSWYLYSANRLKYPMMRKRLMKMWREAKALHSDPVEAWASIIEDADKAKSFKQARGRGGFVRSSWQEVNELIAASNVYTIKNYGPDRVAGFSPIPAMSMVSYASGARYLSLIGGTCLSFYDWYCDLPPASPQTWGEQTDVPESADWYNSSYIIAWGSNVPQTRTPDAHFFTEVRYKGTKTVAVTPDYAEIAKLCDLWLAPKQGTDAAMALAMGHVMLREFHLDNPSQYFTDYVRRYTDMPMLVMLEERDGYYAAGRMLRAADLVDALGQENNPEWKTVAFNTNGEMVAPNGSIGFRWGEKGKWNLEQRDGKTGEETELQLSLLGSQDEIAEVGFPYFGGDGTEHFNKVELENVLLHKLPVKRLQLADGSTALVTTVYDLTLANYGLERGLNDVNCATSYDDVKAYTPAWAEQITGVSRSQIIRIAREFADNADKTHGRSMIIVGAGLNHWYHLDMNYRGLINMLIFCGCVGQSGGGWAHYVGQEKLRPQTGWQPLAFALDWQRPARHMNSTSYFYNHSSQWRYETVTAEELLSPMADKSRYTGHLIDFNVRAERMGWLPSAPQLGTNPLTIAGEAEKAGMNPVDYTVKSLKEGSIRFAAEQPENGKNHPRNLFIWRSNLLGSSGKGHEFMLKYLLGTEHGIQGKDLGQQGGVKPEEVDWQDNGLEGKLDLVVTLDFRLSSTCLYSDIILPTATWYEKDDMNTSDMHPFIHPLSAAVDPAWEAKSDWEIYKAIAKKFSEVCVGHLGKETDIVTLPIQHDSAAELAQPLDVKDWKKGECDLIPGKTAPHIMVVERDYPATYERFTSIGPLMEKIGNGGKGIAWNTQSEMDLLRKLNYTKAEGPAKGQPMLNTAIDAAEMILTLAPETNGQVAVKAWAALSEFTGRDHTHLALNKEDEKIRFRDIQAQPRKIISSPTWSGLEDEHVSYNAGYTNVHELIPWRTLSGRQQLYQDHQWMRDFGESLLVYRPPIDTRSVKEVIGQKSNGNQEKALNFLTPHQKWGIHSTYSDNLLMLTLGRGGPVVWLSEADAKDLGIADNDWIEVFNSNGALTARAVVSQRVPAGMTMMYHAQERIVNLPGSEITQQRGGIHNSVTRITPKPTHMIGGYAHLAYGFNYYGTVGSNRDEFVVVRKMKNIDWLDGEGNDQVQESVK,soluble
17,MSLTAPRILMTRPDHYGVTYAINPWMTPESWAGNQTVALAEAATQWQALADALGAVGFALEILPGQPGLPDMVFPANAAIVFDGIALVARFRHPERQGEEAHFHAAFEALRQRGLLSAVHSLPEGVFQEGAGDCLWDASRQLFFAAHGPRSSRASIEVIAETFGQEIVRLELVDPRFYHLDTCFCVLPGGEVLTFTPALSTASLERLRAVVAPEMLIEADFAAASAFSINAVAHGREVVMANPPASLRALLEERGYHVHGLELGRFMQSGGGSYCMTLRLDRRARAEGHHHHHH,soluble
18,GSKVEDPKDFPSELLSFLSHAVFSNRTLACFAIYTTKEKAALLYKKIMEKYSVTFISRHNSYNHNILFFLTPHRHRVSAINNYAQKLCTFSFLICKGVNKEYLMYSALTRDPFSVIEESLPGGLKEHDFNPESS,soluble
19,MIIILRYNKQVFYKYKGDSVMRNRTSVMRKRQMQEVTAKRTKLGKIAMTQKLEATEKQFIVTQGQPCQTQLAEGKFLSYQYNDQIFVHGGRCIELVDSNIVSTAHASLLITILLEGKLSFGYDDLQFDLDASDTPQGVVVNLIHPANFRRSLIENNQINKINILVKPQWLEYRSEESCCSTAFFETHQAFYHLELNQALTELATELTNRDTPHRFQDKLEIESLIYQILFHATQQMPQDFCPQNTNSYRDK,not soluble
